# From patent US20160075746A1 (published 2016)
# Primed or numbered codes have the meaning given here. [ ]: non-standard residue; d: D form. The star is where a group is joined. PE = proline (from (4R)-azidoproline) carrying a 1,2,3-triazole-linked chondroitin sulfate E (CS-E) disaccharide; Biotin = O=C1N[C@H]2[C@H](CS[C@H]2CCCCC(=O)*)N1; PEG12″ = not defined here; PEG12′ = PEG12: -
# B1: glycopeptide 5 (peptide)
# peptide: {Biotin-PEG12′}-PP[PE]PP[PE]PP[PE]PP[PE]PP[PE]PP[PE]PP[PE]PP[PE]PP[PE]PP[PE]PP[PE]PP[PE]-OMe
# notes: All 12 CS-E disaccharides lie along one face of the PPII helix; also called agent 5; compound 5
# B2: glycopeptide 1 (peptide)
# peptide: {Biotin-PEG12′}-[PE][PE][PE][PE][PE][PE][PE][PE][PE][PE][PE][PE]-OMe
# notes: Immobilised through biotin on streptavidin in ELISA and SPR; also called agent 1; CS-E sulfated glycopeptide 1
# Experiments:
# [1] = biological target: nerve growth factor (NGF); test: SPR, two-state model, comparison of KD values with glycopeptide 1
# Sequence of nerve growth factor (NGF) (chain, as listed by the source): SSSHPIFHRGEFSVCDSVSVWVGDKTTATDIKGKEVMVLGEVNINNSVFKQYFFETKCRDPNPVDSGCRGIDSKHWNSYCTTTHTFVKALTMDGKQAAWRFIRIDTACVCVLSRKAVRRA
# [2] = biological target: nerve growth factor (NGF); test: ELISA, glycopeptide on streptavidin plate, NGF 0-60 nM, anti-NGF-HRP detection
# [3] = biological target: nerve growth factor (NGF); test: SPR, glycopeptide immobilised, NGF analyte, two-state model, kd1
# [4] = biological target: nerve growth factor (NGF); test: SPR (Biacore T100), glycopeptide immobilised on streptavidin CM5 chip, NGF 11-185 nM as analyte, two-state model, ka1
# [5] = biological target: nerve growth factor (NGF); test: cell-based or functional assay
# [6] = biological target: nerve growth factor (NGF); test: SPR, glycopeptide immobilised, NGF analyte, two-state model
Binder,fold stronger binding to NGF than agent 1 (by KD) [1] [fold],fold increase in NGF binding as compared to 1 [2] [fold],koff [3] [s⁻¹],kon [4] [M⁻¹ s⁻¹],"NGF-induced TrkA phosphorylation (Western blot, pTrkA/TrkA ratio) in PC12 cells [5] [%]",Kd [6] [nM],fold increase in NGF binding affinity in comparison to 1 [2] [fold]
B1,~18,4.6,0.0274,46500,~40,137,–
B2,–,–,0.0322,1950,–,2500,–
{Biotin-PEG12″}-P[PE]P[PE]P[PE]P[PE]P[PE]P[PE]P[PE]P[PE]P[PE]P[PE]P[PE]P[PE]-OMe (also called agent 4; (PPE)12) [glycopeptide 4],–,–,–,–,–,–,~2.6
